Drawing on ChEMBL document CHEMBL1142441, “Stereochemical studies on the novel monoamine oxidase B substrates (1R,6S)- and (1S,6R)-3-methyl-6-phenyl-3-aza-bicyclo[4.1.0]heptane” (Bioorg Med Chem, 2008), this text covers Km for one protein.

Substrate in data set [1]: [H][C@@]12CN(C)CC[C@]1(c1ccccc1)C2
Put plainly: (§1) Activity of 50 nM human recombinant MAOB after 30 mins.

Substrate in data set [2]: [H][C@]12CN(C)CC[C@@]1(c1ccccc1)C2
Described as §1.

B1: Amine oxidase [flavin-containing] B (Homo sapiens) (protein)
chain: MSNKCDVVVVGGGISGMAAAKLLHDSGLNVVVLEARDRVGGRTYTLRNQKVKYVDLGGSYVGPTQNRILRLAKELGLETYKVNEVERLIHHVKGKSYPFRGPFPPVWNPITYLDHNNFWRTMDDMGREIPSDAPWKAPLAEEWDNMTMKELLDKLCWTESAKQLATLFVNLCVTAETHEVSALWFLWYVKQCGGTTRIISTTNGGQERKFVGGSGQVSERIMDLLGDRVKLERPVIYIDQTRENVLVETLNHEMYEAKYVISAIPPTLGMKIHFNPPLPMMRNQMITRVPLGSVIKCIVYYKEPFWRKKDYCGTMIIDGEEAPVAYTLDDTKPEGNYAAIMGFILAHKARKLARLTKEERLKKLCELYAKVLGSLEALEPVHYEEKNWCEEQYSGGCYTTYFPPGILTQYGRVLRQPVDRIYFAGTETATHWSGYMEGAVEAGERAAREILHAMGKIPEDEIWQSEPESVDVPAQPITTTFLERHLPSVPGLLRLIGLTTIFSATALGFLAHKRGLLVRV
Turning to B1, the Km in data set [1] and in data set [2] was 221 µM throughout.
